We go through 9 molecules from patent US20220276234A1, “POINT-OF-CARE IMMUNOASSAY FOR QUANTITATIVE SMALL ANALYTE DETECTION” (priority 2011, published 2022).

The conditions of data set [1]: compared with parent compound aripiprazole and dehydro aripiprazole; cited from earlier work.
For data set [2] the following is noted: in vivo; cited from earlier work.
The conditions of data set [3]: cited from earlier work.
In data set [4] the test system is B7 antibody alone. In words: Proprietary qPCR-based aptamer binding assay, immune complexes anchored to solid support. Conditions: qPCR amplification, FIG. 11. How it is done:
(§1) Binding selectivity was tested in varying salt conditions to determine optimal conditions for selection. Using a proprietary binding assay, the aptamers were allowed to incubate with immune complexes that were anchored to a solid support. After the incubation period, the immune complexes were washed, and the amount of aptamer binding was assayed via qPCR. Increased aptamer binding to the immune complex allowed faster detection of DNA amplification.
(§2) Of the aptamers tested, only one aptamer satisfied the following requirements: (1) binding to the correct immune complex, (2) no binding to the antibody alone, and (3) no binding to the antibody and the incorrect metabolite. FIG. 11 is a qPCR amplification curve showing the binding of Aptamer B7C4 with the immune complex B7-HTHC, the immune complex B7-THC, the B7 antibody alone, and a negative control. Theoretically, every additional cycle indicates 2 times fewer bound aptamer molecules.

Data set [5] has as its system B7-HTHC immune complex. The data set is described as above. Conditions: qPCR amplification, FIG. 11. Here is the method:
as §1, §2
Background: Real-time PCR tracks product formation cycle by cycle.

Data set [6] relates to B7-THC immune complex. The data set is described as above. To be noted: qPCR amplification, FIG. 11. Here is the method:
as §1, §2

Data set [7] concerns B7-HTHC immunocomplex. In words: Sandwich type ELISA assay with selected derived B7-HTHC aptamers (5' biotin, HRP-streptavidin, TMB). Format: binding. Here is the method:
The 11 aptamers were synthesized with a 5′ biotin such that they could be detected in ELISA-type assays. The aptamers were tested for their ability to bind to the target in two ways. In both assays, the antibody was coated onto the walls of a microtiter plate. In the first assay, HTHC was added to the antibody. After washing away unbound HTHC, the aptamers were added. In the second assay, the aptamers were added to the wells with HTHC simultaneously. In both assays, after washing away unbound aptamer, the plates were incubated with HRP-streptavidin, and then assayed for the amount of aptamer that remained bound to the immunocomplex using a colorimetric TMB assay.

Data set [8] deals with B7-HTHC immune complex. In words: Capillary electrophoresis test of candidate aptamers. Format: binding. Conditions: electropherogram peak shift, FIGS. 10A and 10B. How it is done: Following completion of aptamer selection, aptamers from the first, fifth, and tenth rounds of Structure Switching SELEX were sequenced using standard Next-Generation Sequencing (NGS) methods (AKESOgen). Of the sequences obtained by NGS, ten sequences per aptamer were tested using Capillary Electrophoresis (CE) and in a proprietary assay utilizing real-time PCR.
The candidate aptamers were initially tested using capillary electrophoresis. Of the 10 B7-HTHC aptamers, 3 were identified as candidate binders. […] This is likely due to the difference between the composition of the buffer required for capillary electrophoresis and the composition of the buffer used during the SELEX selection process.

[9] abbreviates: separate incubation: aptamers added after HTHC and washing, FIG. 16A.
Setting [10] is: simultaneous incubation: aptamers added with HTHC, FIG. 16B.

As to `O=C(O)CCCOc1ccc2c(c1)NC(=O)CC2` [OPC-3373], in data set [1], the Water solubility result is on record as “much more water soluble”.

For the molecule `CCCCCc1cc(O)c2c(c1)OC(C)(C)[C@@H]1CCC(C)=C[C@@H]21` [THC, Delta-9-tetrahydrocannabinol], in data set [2], the “Excreted in the feces” value is listed as “More than 55%” and the “Excreted in the urine” value was “approximately 20%”.

Take `CN1CCCC1c1cccnc1` (stereo not shown) [nicotine]: the “Time to reach the brain after inhalation” value in data set [3] (crosses the blood-brain barrier) was 10 to 20 s. Besides, the “Elimination half-life in the body” value in data set [3] (in vivo) is “approximately two”.

B1: B7C4: parent DNA aptamer selective for the B7-HTHC immune complex (nucleic acid)
DNA: CCTGTCAGTTGCTTACCGGGCACGAGTACGAGACTGCAGGATTCTTCTACACTGCCCCCCATGTAGTGTCCTTGCTCGT
modifications: DNA, backbone not given here; further chemistry not fully specified
Consider B1, for which the “Aptamer binding to B7 antibody alone” value in data set [4] is given as “minimal binding”; in data set [4] (listed as B7C4-HTHC) it was “residual binding affinity”. Further, the “Aptamer binding to B7-HTHC immune complex” value is “significant binding” in data set [5] and “high affinity” in data set [5] (listed as B7C4-HTHC). In data set [6], the “Aptamer binding to B7-THC immune complex” value is given as “minimal binding”.

B2: Aptamer 444: selected derived B7-HTHC DNA aptamer (nucleic acid)
DNA: CCTGTCAGTTGCTTACCGGGCACGAGTACGAGACTGCAGGATTCTTCTACACTGCGCCCCATGTAGTGTCCTTGCTCGT
modifications: DNA, backbone and methylation of C not given here
Regarding B2, the “Normalized absorption signal, aptamer binding to immunocomplex” value (“Normalized absorption signal” for short) in data set [7] (setting [9]) is listed as “high sensitivity”; in data set [7] (setting [10]), “reduced sensitivity”.

B3: Aptamer 368.2: selected derived B7-HTHC DNA aptamer (nucleic acid)
DNA: CCTGTCAGTTGCTTACCGGGCACGAGTACGAGACTGCAGGATTCTTCTACACTGCTCCCCATGTAGTGTCCTTGCTCGT
modifications: DNA, backbone and methylation of C not given here
As for B3, the “Normalized absorption signal” value in data set [7] (setting [9]) and in data set [7] (setting [10]) was “significant binding” in each case.

B4: Aptamer 815: selected derived B7-HTHC DNA aptamer, family 2 (nucleic acid)
DNA: CCTGTCAGTTGCTTACCGGGCACGAGTACTAGACTGCAGGATTCTTCTACACTGCCCCCCATGTAGTGTCCTTGCTCGT
modifications: DNA, backbone and methylation of C not given here
As for B4, the “Normalized absorption signal” value is recorded as “high binding” in data set [7] (setting [9]) and “lost this ability” in data set [7] (setting [10]).

B5: B7C1: candidate DNA aptamer for antibody B7 and HTHC (nucleic acid)
DNA: CCTGTCAGTTGCTTACCGGCCCAGGTGTAGTAACTGCAGGGATTCTTAACGTAGCTACCGGGTGTAGTGTCCTTGCTCGT
modifications: DNA, backbone not given here; further chemistry not fully specified
notes: candidate DNA aptamer for antibody B7 and HTHC
Turning to B5, the “Binding to immune complex by capillary electrophoresis” value in data set [8] is recorded as “peak shifts associated with the introduction of the immune complex”.

B6: Aptamer 493: selected derived B7-HTHC DNA aptamer (nucleic acid)
DNA: CCTGTCAGTTGCTTACCGGGCACGAGTACGAGACTGCAGGATTCTTCTACACTGCACCCCATGTAGTGTCCTTGCTC
modifications: DNA, backbone and methylation of C not given here
On to B6, for which the “Normalized absorption signal” value in data set [7] (setting [9]) and in data set [7] (setting [10]) was “the opposite behavior compared to that of aptamer 444” throughout.
